The FLAb antibody collection

Assay: patients with anti-drug antibodies; higher = more immunogenic

B1: unnamed (protein)
chain 1: EVQLVQSGAEVKKPGESLRISCKGSGYSFSTYWISWVRQMPGKGLEWMGKIYPGDSYTNYSPSFQGQVTISADKSISTAYLQWSSLKASDTAMYYCARGYGIFDYWGQGTLVTVSS
chain 2: SYELTQPPSVSVSPGQTASITCSGDNIGDQYAHWYQQKPGQSPVLVIYQDKNRPSGIPERFSGSNSGNTATLTISGTQAMDEADYYCATYTGFGSLAVFGGGTKLTVL
Which “patients with anti-drug antibodies” value does the source give for B1 here?
The value was 40.7%.

B2: unnamed (protein)
chain 1: QAYLQQSGAELVRPGASVKMSCKASGYTFTSYNMHWVKQTPRQGLEWIGAIYPGNGDTSYNQKFKGKATLTVDKSSSTAYMQLSSLTSEDSAVYFCARVVYYSNSYWYFDVWGTGTTVTVSG
chain 2: QIVLSQSPAILSASPGEKVTMTCRASSSVSYMHWYQQKPGSSPKPWIYAPSNLASGVPARFSGSGSGTSYSLTISRVEAEDAATYYCQQWSFNPPTFGAGTKLELK
For B2, which “patients with anti-drug antibodies” value is on record?
Its value is 45.5%.

B3: unnamed (protein)
chain 1: QAYLQQSGAELVRPGASVKMSCKASGYTFTSYNMHWVKQTPRQGLEWIGGIYPGNGDTSYNQKFKGKATLTVGKSSSTAYMQLSSLTSEDSAVYFCARYDYNYAMDYWGQGTSVTVSS
chain 2: QIVLSQSPAILSASPGEKVTMTCRASSSVSYMHWYQQKPGSSPKPWIYATSNLASGVPARFSGSGSGTSYSFTISRVEAEDAATYYCQQWTFNPPTFGGGTRLEIK
Which “patients with anti-drug antibodies” value does the source give for B3 here?
Its value is 0%.

B4: unnamed (protein)
chain 1: QVQLQQSGAEVKKPGSSVRVSCKASGGTFNNNAINWVRQAPGQGLEWMGGIIPMFGTAKYSQNFQGRVAITADESTGTASMELSSLRSEDTAVYYCARSRDLLLFPHHALSPWGRGTMVTVSS
chain 2: SSELTQDPAVSVALGQTVRVTCQGDSLRSYYASWYQQKPGQAPVLVIYGKNNRPSGIPDRFSGSSSGNTASLTITGAQAEDEADYYCSSRDSSGNHWVFGGGTELTVL
For B4, which “patients with anti-drug antibodies” value is on record?
The value was 2.4%.

B5: unnamed (protein)
chain 1: EVQLVQSGAEVKKPGESLKISCKGSGYSFTTYWLGWVRQMPGKGLDWIGIMSPVDSDIRYSPSFQGQVTMSVDKSITTAYLQWNSLKASDTAMYYCARRRPGQGYFDFWGQGTLVTVSS
chain 2: DIQMTQSPSSLSASVGDRVTITCRASQGISSWLAWYQQKPEKAPKSLIYAASSLQSGVPSRFSGSGSGTDFTLTISSLQPEDFATYYCQQYNIYPYTFGQGTKLEIK
With B5 as the protein, how does the “patients with anti-drug antibodies” value read?
The value was 4%.

B6: unnamed (protein)
chain 1: QVQLVESGGGVVQPGRSLRLSCAASGFTFSSYDMHWVRQAPGKGLEWVAVIWYDGSNKYYADSVKGRFTISRDNSKNTLYLQMNSLRAEDTAVYYCARGSGNWGFFDYWGQGTLVTVSS
chain 2: DIQMTQSPSSLSASVGDRVTITCRASQGISRWLAWYQQKPEKAPKSLIYAASSLQSGVPSRFSGSGSGTDFTLTISSLQPEDFATYYCQQYNTYPRTFGQGTKVEIK
For B6, which “patients with anti-drug antibodies” value is on record?
Its value is 0%.

B7: unnamed (protein)
chain 1: QGQLVQSGAEVKKPGASVKVSCKASGYTFTDYEMHWVRQAPIHGLEWIGVIESETGGTAYNQKFKGRVTITADKSTSTAYMELSSLRSEDTAVYYCAREGITTVATTYYWYFDVWGQGTTVTVSS
chain 2: DVVMTQSPLSLPVTLGQPASISCRSSQSIVHSNGNTYLEWYLQKPGQSPQLLIYKVSNRFSGVPDRFSGSGSGTDFTLKISRVEAEDVGVYYCFQGSHVPLTFGQGTKLEIK
With B7 as the protein, how does the “patients with anti-drug antibodies” value read?
Its value is 1%.

B8: unnamed (protein)
chain 1: QVQLQESGPGLVKPSETLSLTCTVSGFSLTNYGIHWIRQPPGKGLEWLGVIWARGFTNYNSALMSRLTISKDNSKNQVSLKLSSVTAADTAVYYCARANDGVYYAMDYWGQGTLVTVSS
chain 2: DFVMTQSPAFLSVTPGEKVTITCSAQSSVNYIHWYQQKPDQAPKKLIYDTSKLASGVPSRFSGSGSGTDYTFTISSLEAEDAATYYCQQWTTNPLTFGQGTKVEIK
For B8, which “patients with anti-drug antibodies” value is on record?
The value was 2.6%.

B9: unnamed (protein)
chain 1: QVQLVESGGGLVKPGGSLRLSCAASGFTFSDYYMNWIRQAPGKGLEWVSYISSSGSIIYYADSVKGRFTISRDNAKNSLYLQMNSLRAEDTAVYYCAREGRIAARGMDVWGQGTTVTVSS
chain 2: DIQMTQSPSSLSASVGDRVSITCRPSQSFSRYINWYQQKPGKAPKLLIHAASSLVGGVPSRFSGSGSGTDFTLTISSLQPEDFATYYCQQTYSNPPITFGQGTRLEMK
For B9, which “patients with anti-drug antibodies” value is on record?
Its value is 2.9%.

B10: unnamed (protein)
chain 1: QVQLVESGGGVVQPGRSLRLSCAASGFTFSTYGMHWVRQAPGKGLEWVAVIWDDGSYKYYGDSVKGRFTISRDNSKNTLYLQMNSLRAEDTAVYYCARDGITMVRGVMKDYFDYWGQGTLVTVSS
chain 2: AIQLTQSPSSLSASVGDRVTITCRASQDISSALVWYQQKPGKAPKLLIYDASSLESGVPSRFSGSESGTDFTLTISSLQPEDFATYYCQQFNSYPLTFGGGTKVEIK
Which “patients with anti-drug antibodies” value does the source give for B10 here?
The value was 0%.

B11: unnamed (protein)
chain 1: QVELVESGGGLVQPGGSLRLSCAASGFTFTSYWMSWVRQAPGKGLELVSSITSYGSFTYYADSVKGRFTISRDNSKNTLYLQMNSLRAEDTAVYYCARNMYTHFDSWGQGTLVTVSS
chain 2: DIVLTQPPSVSGAPGQRVTISCSGSSSNIGSNSVSWYQQLPGTAPKLLIYDNSKRPSGVPDRFSGSKSGTSASLAITGLQSEDEADYYCQSRDTYGYYWVFGGGTKLTVL
For B11, which “patients with anti-drug antibodies” value is on record?
The value was 2.3%.

B12: unnamed (protein)
chain 1: QVQLVQSGAEVKKPGASVKVSCKGSGYTFTSYWMHWVRQAPGQRLEWIGEIDPSESNTNYNQKFKGRVTLTVDISASTAYMELSSLRSEDTAVYYCARGGYDGWDYAIDYWGQGTLVTVSS
chain 2: DVVMTQSPLSLPVTPGEPASISCRSSQSLAKSYGNTYLSWYLQKPGQSPQLLIYGISNRFSGVPDRFSGSGSGTDFTLKISRVEAEDVGVYYCLQGTHQPYTFGQGTKVEIK
With B12 as the protein, how does the “patients with anti-drug antibodies” value read?
Its value is 9.5%.

B13: unnamed (protein)
chain 1: QVQLVQSGAEVKKPGASVKVSCKASGYTFTNYGLSWVRQAPGQGLEWMGWISANNGDTNYGQEFQGRVTMTTDTSTSTAYMELRSLRSDDTAVYYCARDSSSSWARWFFDLWGRGTLVTVSS
chain 2: SYVLTQPPSVSVAPGKTARITCGGNIIGSKLVHWYQQKPGQAPVLVIYDDGDRPSGIPERFSGSNSGNTATLTISRVEAGDEADYYCQVWDTGSDPVVFGGGTKLTVL
With B13 as the protein, how does the “patients with anti-drug antibodies” value read?
Its value is 0.5%.

B14: unnamed (protein)
chain 1: QVKLQESGAELARPGASVKLSCKASGYTFTNYWMQWVKQRPGQGLDWIGAIYPGDGNTRYTHKFKGKATLTADKSSSTAYMQLSSLASEDSGVYYCARGEGNYAWFAYWGQGTTVTVSS
chain 2: DIELTQSPASLSASVGETVTITCQASENIYSYLAWHQQKQGKSPQLLVYNAKTLAGGVSSRFSGSGSGTHFSLKIKSLQPEDFGIYYCQHHYGILPTFGGGTKLEIK
Which “patients with anti-drug antibodies” value does the source give for B14 here?
Its value is 68.1%.

B15: unnamed (protein)
chain 1: QVQLQQSGAEVKKPGSSVKVSCKASGYTFTSYNMHWVKQAPGQGLEWIGAIYPGMGDTSYNQKFKGKATLTADESTNTAYMELSSLRSEDTAFYYCARSTYYGGDWYFDVWGQGTTVTVSS
chain 2: DIQLTQSPSSLSASVGDRVTMTCRASSSVSYIHWFQQKPGKAPKPWIYATSNLASGVPVRFSGSGSGTDYTFTISSLQPEDIATYYCQQWTSNPPTFGGGTKLEIK
With B15 as the protein, how does the “patients with anti-drug antibodies” value read?
Its value is 19.5%.

B16: unnamed (protein)
chain 1: QVQLQESGPGLVRPSQTLSLTCTVSGYSITSDHAWSWVRQPPGRGLEWIGYISYSGITTYNPSLKSRVTMLRDTSKNQFSLRLSSVTAADTAVYYCARSLARTTAMDYWGQGSLVTVSS
chain 2: DIQMTQSPSSLSASVGDRVTITCRASQDISSYLNWYQQKPGKAPKLLIYYTSRLHSGVPSRFSGSGSGTDFTFTISSLQPEDIATYYCQQGNTLPYTFGQGTKVEIK
Which “patients with anti-drug antibodies” value does the source give for B16 here?
Its value is 2%.

B17: unnamed (protein)
chain 1: EVQLVQSGAEVKKPGASVKVSCKASGYTFTSYVIHWVRQRPGQGLAWMGYINPYNDGTKYNERFKGKVTITSDRSTSTVYMELSSLRSEDTAVYLCGREGIRYYGLLGDYWGQGTLVTVSS
chain 2: DIQMTQSPSSLSASVGDRVTITCGTSEDIINYLNWYQQKPGKAPKLLIYHTSRLQSGVPSRFSGSGSGTDFTLTISSLQPEDFATYYCQQGYTLPYTFGQGTKVEIK
For B17, which “patients with anti-drug antibodies” value is on record?
Its value is 13%.

B18: unnamed (protein)
chain 1: QVQLQQPGAELVRPGASVKLSCKASGYTFTSYWINWVKQRPGQGLEWIGNIYPSDSYTNYNQKFKDKATLTVDKSSSTAYMQLSSPTSEDSAVYYCTRSWRGNSFDYWGQGTTLTVSS
chain 2: DIVMTQSPSSLTVTAGEKVTMSCKSSQSLLNSGNQKNYLTWYQQKPGQPPKLLIYWASTRESGVPDRFTGSGSGTDFTLTISSVQAEDLAVYYCQNDYSYPFTFGSGTKLEIK
Which “patients with anti-drug antibodies” value does the source give for B18 here?
Its value is 0%.

B19: unnamed (protein)
chain 1: EVQMVQSGAEVKKPGEPLKISCKGSGYKFGTHWIGWVRQRPGKGLEWMGIIHPADSETKYSPSFQGQVSFSADKSSNTAYLHWSTLRASDTAMYYCARRSGSSSWYALDFWGQGTMVTVSS
chain 2: QSVLTQSPSASGTPGQRVTISCSGGSSNIGSNTVNWYQQFPGAAPKLLIYTNNQRPSGVPDRFSGSKSGTSASLAISGLQSEDEADYYCATWDDSLNGLYVFGTGTKVTVL
Which “patients with anti-drug antibodies” value does the source give for B19 here?
Its value is 2.1%.
